Test results reported in paper PMC6389893.

Experiments:
Test in all cases: pull-down; GST fusion proteins (2 µg) on agarose beads, nuclease-treated, with in vitro translated [35S]-TRIM33; NETN buffer (20 mM Tris HCl pH 7.5, 100 mM NaCl, 1 mM EDTA, 0.5% NP-40, 1 mM DTT) with 200 µg/ml ethidium bromide, 1 h at 4 °C; phosphoimaging, bound as percent of input
[1] = biological target: GST-IN C-terminal domain (HIV-1)
[2] = biological target: GST-IN catalytic core domain (HIV-1)
[3] = biological target: GST-IN full length (HIV-1)
[4] = biological target: GST-IN N-terminal domain (HIV-1)

B1: in vitro translated [35S]-TRIM33 (natural protein)
chain: MAENKGGGEAESGGGGSGSAPVTAGAAGPAAQEAEPPLTAVLVEEEEEEGGRAGAEGGAAGPDDGGVAAASSGSAQAASSPAASVGTGVAGGAVSTPAPAPASAPAPGPSAGPPPGPPASLLDTCAVCQQSLQSRREAEPKLLPCLHSFCLRCLPEPERQLSVPIPGGSNGDIQQVGVIRCPVCRQECRQIDLVDNYFVKDTSEAPSSSDEKSEQVCTSCEDNASAVGFCVECGEWLCKTCIEAHQRVKFTKDHLIRKKEDVSESVGASGQRPVFCPVHKQEQLKLFCETCDRLTCRDCQLLEHKEHRYQFLEEAFQNQKGAIENLLAKLLEKKNYVHFAATQVQNRIKEVNETNKRVEQEIKVAIFTLINEINKKGKSLLQQLENVTKERQMKLLQQQNDITGLSRQVKHVMNFTNWAIASGSSTALLYSKRLITFQLRHILKARCDPVPAANGAIRFHCDPTFWAKNVVNLGNLVIESKPAPGYTPNVVVGQVPPGTNHISKTPGQINLAQLRLQHMQQQVYAQKHQQLQQMRMQQPPAPVPTTTTTTQQHPRQAAPQMLQQQPPRLISVQTMQRGNMNCGAFQAHQMRLAQNAARIPGIPRHSGPQYSMMQPHLQRQHSNPGHAGPFPVVSVHNTTINPTSPTTATMANANRGPTSPSVTAIELIPSVTNPENLPSLPDIPPIQLEDAGSSSLDNLLSRYISGSHLPPQPTSTMNPSPGPSALSPGSSGLSNSHTPVRPPSTSSTGSRGSCGSSGRTAEKTSLSFKSDQVKVKQEPGTEDEICSFSGGVKQEKTEDGRRSACMLSSPESSLTPPLSTNLHLESELDALASLENHVKIEPADMNESCKQSGLSSLVNGKSPIRSLMHRSARIGGDGNNKDDDPNEDWCAVCQNGGDLLCCEKCPKVFHLTCHVPTLLSFPSGDWICTFCRDIGKPEVEYDCDNLQHSKKGKTAQGLSPVDQRKCERLLLYLYCHELSIEFQEPVPASIPNYYKIIKKPMDLSTVKKKLQKKHSQHYQIPDDFVADVRLIFKNCERFNEMMKVVQVYADTQEINLKADSEVAQAGKAVALYFEDKLTEIYSDRTFAPLPEFEQEEDDGEVTEDSDEDFIQPRRKRLKSDERPVHIK
modifications: [35S]-labeled
For B1, the percent of radiolabeled input bound [1] was > 8.5%, the percent of radiolabeled input bound [2] was < 3% and the percent of radiolabeled input bound [3] was > 8.5%. For the same binder, the percent of radiolabeled input bound [4] was < 3%.
